Results: patent US20150218534A1, “MODIFIED DNA POLYMERASE” (TOYOBO CO., LTD., priority 2012, published 2015)
Substitutions are numbered along the chain they refer to. Names and notes keep the numbering of the source.

B1: Pfu Y7A/P36H: modified Pfu DNA polymerase with Y7A and P36H (protein, UniProt P61875 1-775, looked up, variant Y7A P36H)
DNA polymerase: MILDVDAITEEGKPVIRLFKKENGKFKIEHDRTFRHYIYALLRDDSKIEEVKKITGERHGKIVRIVDVEKVEKKFLGKPITVWKLYLEHPQDVPTIREKVREHPAVVDIFEYDIPFAKRYLIDKGLIPMEGEEELKILAFDIETLYHEGEEFGKGPIIMISYADENEAKVITWKNIDLPYVEVVSSEREMIKRFLRIIREKDPDIIVTYNGDSFDFPYLAKRAEKLGIKLTIGRDGSEPKMQRIGDMTAVEVKGRIHFDLYHVITRTINLPTYTLEAVYEAIFGKPKEKVYADEIAKAWESGENLERVAKYSMEDAKATYELGKEFLPMEIQLSRLVGQPLWDVSRSSTGNLVEWFLLRKAYERNEVAPNKPSEEEYQRRLRESYTGGFVKEPEKGLWENIVYLDFRALYPSIIITHNVSPDTLNLEGCKNYDIAPQVGHKFCKDIPGFIPSLLGHLLEERQKIKTKMKETQDPIEKILLDYRQKAIKLLANSFYGYYGYAKARWYCKECAESVTAWGRKYIELVWKELEEKFGFKVLYIDTDGLYATIPGGESEEIKKKALEFVKYINSKLPGLLELEYEGFYKRGFFVTKKRYAVIDEEGKVITRGLEIVRRDWSEIAKETQARVLETILKHGDVEEAVRIVKEVIQKLANYEIPPEKLAIYEQITRPLHEYKAIGPHVAVAKKLAAKGVKIKPGMVIGYIVLRGDGPISNRAILAEEYDPKKHKYDAEYYIENQVLPAVLRILEGFGYRKEDLRYQKTRQVGLTSWLNIKKS
B2: KOD N210D: modified KOD DNA polymerase with N210D, deficient in 3′-5′ exonuclease activity (exo(−)) (protein, listed as Thermococcus kodakaraensis)
chain: MILDTDYITEDGKPVIRIFKKENGEFKIEYDRTFEPYFYALLKDDSAIEEVKKITAERHGTVVTVKRVEKVQKKFLGRPVEVWKLYFTHPQDVPAIRDKIREHPAVIDIYEYDIPFAKRYLIDKGLVPMEGDEELKMLAFDIETLYHEGEEFAEGPILMISYADEEGARVITWKNVDLPYVDVVSTEREMIKRFLRVVKEKDPDVLITYDGDNFDFAYLKKRCEKLGINFALGRDGSEPKIQRMGDRFAVEVKGRIHFDLYPVIRRTINLPTYTLEAVYEAVFGQPKEKVYAEEITTAWETGENLERVARYSMEDAKVTYELGKEFLPMEAQLSRLIGQSLWDVSRSSTGNLVEWFLLRKAYERNELAPNKPDEKELARRRQSYEGGYVKEPERGLWENIVYLDFRSLYPSIIITHNVSPDTLNREGCKEYDVAPQVGHRFCKDFPGFIPSLLGDLLEERQKIKKKMKATIDPIERKLLDYRQRAIKILANSYYGYYGYARARWYCKECAESVTAWGREYITMTIKEIEEKYGFKVIYSDTDGFFATIPGADAETVKKKAMEFLKYINAKLPGALELEYEGFYKRGFFVTKKKYAVIDEEGKITTRGLEIVRRDWSEIAKETQARVLEALLKDGDVEKAVRIVKEVTEKLSKYEVPPEKLVIHEQITRDLKDYKATGPHVAVAKRLAARGVKIRPGTVISYIVLKGSGRIGDRAIPFDEFDPTKHKYDAEYYIENQVLPAVERILRAFGYRKEDLRYQKTRQVGLSAWLKPKGT
B3: KOD D141A/E143A: modified KOD DNA polymerase with D141A and E143A, deficient in 3′-5′ exonuclease activity (exo(−)) (protein, listed as Thermococcus kodakaraensis)
chain: B2 chain with D141A, E143A, D210N
B4: KOD I142R: modified KOD DNA polymerase with I142R, deficient in 3′-5′ exonuclease activity (exo(−)) (protein, listed as Thermococcus kodakaraensis)
chain: B2 chain with I142R, D210N

Columns and labels:
Format in all cases: biochemical
482 bp of human β-globin = assay: PCR amplification of 482 bp of human β-globin with dUTP in place of dTTP; design: key to Results of PCR in the presence of dUTP 481 bp: A: Amplified; B: Amplified (faint band); C: Not amplified; conditions: dTTP replaced by dUTP, 35 cycles
Protocol: 482 bp of human β-globin was amplified to compare the amplification difference between the case of using dTTP and the case of using dUTP in PCR, and the sensitivity to dUTP was examined. For amplification, each enzyme was used after being mixed with 1 μg of a KOD antibody per U of the enzyme. For PCR, components included in KOD-Plus-Ver. 2 (produced by Toyobo Co. Ltd.) were used. General dNTPs (dATP, dTTP, dCTP, dGTP) in an amount of 0.2 mM were added to 50 μl of individual reaction solutions, and dNTPs (dATP, dUTP, dCTP, dGTP) in an amount of 0.2 mM in which dTTP was replaced by dUTP were added to 50 μl of individual reaction solutions. The reaction solutions contained 1× PCR buffer, 1.5 mM MgSO4, primers represented by SEQ ID NOs: 27 and 28 in an amount of 15 pmol for amplifying […], 10 ng of human genomic DNA (produced by Roche), and 1 U of each respective enzyme mixed with the antibody. PCR was performed using a GeneAmp PCR system 9700 (produced by Applied Biosystems) on the following schedule: preliminary reaction at 94° C. for 2 minutes, followed by 35 cycles, each cycle consisting of 98° C. for 10 seconds and 68° C. for 1 minute. After the completion of each individual reaction, each of the resulting reaction solutions was analyzed using to a DNA-1000 kit for MultiNA (produced by Shimadzu Corporation) to confirm amplified DNA fragments. FIGS. 5 and 6 show the results.

[1] = system: human genomic DNA (about 1.3 kb) with dUTP added; assay: Evaluation of uracil (dUTP) sensitivity by PCR with dUTP added to the reaction; conditions: for sensitivity to dUTP / amount of amplification, comparison with single mutants or wild type: dUTP added to PCR (FIGS. 3 and 4)
Protocol: The uracil sensitivity of the modified DNA polymerase of the present invention can be evaluated by PCR. For example, a dUTP solution is added at a final concentration of 0.5 μM to 200 μM to a common PCR reaction solution containing DNA as a template, a buffer, magnesium, dNTPs, primers, and a DNA polymerase to be evaluated, and thermal cycling is performed. After the reaction, the presence or absence of PCR products is confirmed by ethidium bromide-stained agarose electrophoresis, and the uracil sensitivity can be evaluated by the concentration of accepted dUTP. With a DNA polymerase having high uracil sensitivity, the extension reaction is inhibited by the addition of a small amount of dUTP, and PCR products cannot be confirmed. With a DNA polymerase having low uracil sensitivity, gene amplification by PCR can be confirmed without problem, even if a high concentration of dUTP is added. The modified DNA polymerase with low uracil sensitivity in the present invention refers to a DNA polymerase such that when optimum thermal cycling is performed using any primers and DNA as a template in a reaction buffer optimum for the enzyme, even if a high concentration of dUTP is added, an extension reaction is not inhibited and PCR products can be confirmed, compared to wild-type DNA polymerase, which has no mutation.
More specifically, 10× PCR buffer included in KOD-Plus-Ver. 2 (produced by Toyobo Co. Ltd.) or 10× PCR buffer included in Pfu DNA Polymerase (produced by Agilent) is used; dUTP (produced by Roche) is added to 50 μl of individual reaction solutions containing 1× PCR buffer, 1.5 mM MgSO4, dNTPs (dATP, dTTP, dCTP, and dGTP) in an amount of 0.2 mM, primers represented by SEQ ID NOs: 25 and 26 in an amount of 15 pmol for amplifying about 1.3 kb, 10 ng of human genomic DNA (produced by Roche), and 1 U of each respective enzyme, to final concentrations of 0.5, 5, 50, 100, and 200 μM. PCR is performed using a GeneAmp PCR system 9700 (Applied Biosystems) on the following schedule; preliminary reaction at 94° C. for 30 seconds, followed by 30 cycles, each cycle consisting of 98° C. for 10 seconds, 65° C. for 30 seconds, and 68° C. for 1 minute and 30 seconds. After the completion of each individual reaction, 5 μl of each of the resulting reaction solutions is subjected to agarose electrophoresis, followed by ethidium bromide staining. The uracil sensitivity can be evaluated by confirming amplified DNA fragments of about 1.3 kb under ultraviolet irradiation.
PCR was performed by the following method to evaluate uracil sensitivity. For PCR, components included in KOD-Plus-Ver. 2 (produced by Toyobo Co. Ltd.) were used. dUTP (produced by Roche) was added to 50 μl of individual reaction solutions containing 1× PCR buffer, 1.5 mM MgSO4, dNTPs (dATP, dTTP, dCTP, dGTP) in an amount of 0.2 mM, primers represented by SEQ ID NOs: 25 and 26 in an amount of 15 pmol for amplifying about 1.3 kb, 10 ng of human genomic DNA (produced by Roche), and 1 U of each respective enzyme, to final concentrations of 0.5, 5, 50, 100, and 200 μM. PCR was performed using a GeneAmp PCR system 9700 (produced by Applied Biosystems) on the following schedule: preliminary reaction at 94° C. for 30 seconds, followed by 30 cycles, each cycle consisting of 98° C. for 10 seconds, 65° C. for 30 seconds, and 68° C. for 1 minute and 30 seconds. After the completion of each individual reaction, 5 μl of each of the resulting reaction solutions was subjected to agarose electrophoresis, followed by ethidium bromide staining. Under ultraviolet irradiation, amplified DNA fragments of about 1.3 kb were confirmed. FIGS. 3, 4, 7, and 8 show the results.

[2] = system: 1.3 kbp, 2.8 kbp, and 3.6 kbp of human β-globin; assay: Amplification of long-chain DNA in PCR using dUTP; conditions: 1.3, 2.8, 3.6 kbp; 100% dUTP (FIGS. 9 and 10)
Protocol: Amplification of 1.3 kbp, 2.8 kbp, and 3.6 kbp of human β-globin in PCR using dUTP was compared. For amplification, each enzyme was used after being mixed with 1 μg of a KOD antibody per U of the enzyme. For PCR, components included in KOD-Plus-Ver. 2 (produced by Toyobo Co. Ltd.) were used. 50 μl of individual reaction solutions containing 1× PCR buffer, 1.5 mM MgSO4, dNTPs (dATP, dUTP, dCTP, dGTP) in an amount of 2 mM in which dTTP was replaced by dUTP, primers in an amount of 15 pmol (SEQ ID NOs: 25 and 26 for amplification of 1.3 kbp; SEQ ID NOs: 26 and 29 for amplification of 2.8 kbp; SEQ ID NOs: 30 and 31 for amplification of 3.6 kbp), 10 ng of human genomic DNA (produced by Roche), and 1 U of each respective enzyme mixed with the antibody were used. PCR was performed using a GeneAmp PCR system 9700 (Applied Biosystems) on the following schedule: preliminary reaction at 94° C. for 2 minutes, followed by 35 cycles, each cycle consisting of 98° C. for 10 seconds, 65° C. for 30 seconds, and 68° C. for about 1 minute per kbp (1 minute and 30 seconds for amplification of 1.3 kbp; 3 minutes for amplification of 2.8 kbp; 4 minutes for amplification of 3.6 kbp). As a control, amplification was also performed using Taq DNA polymerase. Taq DNA polymerase produced by Toyobo Co. Ltd. mixed with Anti-Taq High (produced by Toyobo Co. Ltd.) was used. 50 μl of a reaction solution containing 1× buffer included in Blend Taq, dNTPs (dATP, dUTP, dCTP, dGTP) in an amount of 2 mM in which dTTP was replaced by dUTP, primers in an amount of 10 pmol the same as the above), 10 ng of human genomic DNA (produced by Roche), and 2.5 U of the enzyme mixed with the antibody was used. PCR was performed using a GeneAmp PCR system 9700 (produced by Applied Biosystems) on the following schedule: preliminary reaction at 94° C. for 2 minutes, followed by 35 cycles, each cycle consisting of 94° C. for 30 seconds, 65° C. for 30 seconds, and 68° C. for about 1 minute per kbp (1 minute and 30 seconds for amplification of 1.3 kbp; 3 minutes for amplification of 2.8 kbp; 4 minutes for amplification of 3.6 kbp). After the completion of each individual reaction, 5 μl of each of the resulting reaction solutions was subjected to agarose electrophoresis, followed by ethidium bromide staining, and the amount of amplified DNA fragments was confirmed under ultraviolet irradiation. FIGS. 9 and 10 show the results.

Row | Molecule | sensitivity to dUTP / amount of amplification, comparison with single mutants or wild type [1] | also measured
1 | KOD H147E/P36K: KOD H147E (exo(+)) mutant with P36K |  | Results of PCR in the presence of dUTP 481 bp (482 bp of human β-globin): A; Evaluation of dUTP resisitance on a 11-point scale ([1]; closer to 0 = stronger sensitivity to dUTP, closer to 10 = lower sensitivity, summary of Examples 1 to 3): 4; dUTP resistance ([1]; dUTP added to 0.5, 5, 50, 100, 200 μM, about 1.3 kb, 30 cycles, 1 U enzyme): 100 µM
2 | B1 | provided a larger amount of amplification | amount of amplification of long-chain DNA with dUTP [2]: provided larger amounts of amplification
3 | B2 | less sensitive to dUTP than the wild-type DNA polymerase | 
4 | B3 | less sensitive to dUTP than the wild-type DNA polymerase | 
5 | B4 | less sensitive to dUTP than the wild-type DNA polymerase | 
